Drawing on the RNAGym collection of RNA variant scans (doi:10.1093/nar/gkz1192), this text covers self-cleavage for 167 variants.

B1: CPEB3 Ribozyme (parent)
chain: UAACAGGGGGCCACAGCAGAAGCGUUCACGUCGCAGCCCCUGUCAGAUUCUGGUGAAUCUGCGAAUUCUGCUGUAUAUCUC

This data set covers variants of B1. The experiment in a line: self-cleavage, relative activity (ratio to wild type); higher = more cleavage; in vitro, sequencing. Put shortly:
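Relative activity was defined as the cleaved/total read fraction for a variant divided by the same fraction for the unmutated ribozyme. CPEB3 self-cleaving ribozyme libraries were made by rounds of error-prone PCR, barcoded, and transcribed in vitro with T7 RNA polymerase for 5 hours at 37°C, and cleavage ran through transcription plus a 15 min DNase I step before EDTA. Illumina sequencing of template-switched reverse transcripts gave the reads, and DNA sequencing mapped the barcodes. Averages come from three batches, using variants with at least 5 reads.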
As to U58G U69C, the self-cleavage was 0.2.
In the case of C59U U67C, the self-cleavage worked out at 0.21.
The same measure for C59U U67A: 0.28; for U58A A77U: 0.43; for U58A A77C: 0.33.
Take U58A A77G: the self-cleavage is 0.38.
Take C59U U78A: the self-cleavage came out at 1.17.
For the variant C59U U78C, the self-cleavage turned out to be 0.94.
As to A57G G73A, the self-cleavage stood at 1.25.
A57G G73U: the self-cleavage was 1.15.
Regarding U58C U78G, the self-cleavage amounted to 0.44.
The same measure for U58C U78A: 0.47; for U58C U78C: 0.47.
Under A56U U78A stands 0.95.
For the variant A56U U78G, the self-cleavage came to 0.58.
As to A56U U78C, the self-cleavage turned out to be 0.61.
The same measure for A56U A77U: 0.73; for A56U A77G: 0.71; for A56U A77C: 0.62.
Under A56U G63A stands 0.48.
In the case of A56U G63C, the self-cleavage was 0.61.
Under A57C stands 0.48; under A57G, 0.96; under A57U, 0.8.
Under U58A U66C stands 0.29.
Under U58C U69A stands 0.3.
For the variant U58C U69G, the self-cleavage worked out at 0.15.
Under U58C U69C stands 0.27; under C59A U76A, 0.43.
For C59A U76G, the self-cleavage came to 0.33.
Regarding A57U A64U, the self-cleavage came to 0.21.
Under A57U A64G stands 0.75; under C59U U60C, 0.34; under C59U U60A, 0.28.
The same measure for U60A A77G: 0.56.
The same measure for U60A A77U: 0.52; for C59U G73A: 1.45; for A56U C71U: 0.46.
As for A56U C71A, the self-cleavage turned out to be 0.26.
Under A56U C71G stands 0.26.
The same measure for A57C U67C: 0.27.
Under A57G A65U stands 0.32; under A57G A65C, 0.15.
Turning to A57G A65G, the self-cleavage came out at 0.37.
In the case of A57G A77U, the self-cleavage stood at 0.9.
On to A57G A77G, for which the self-cleavage was found to be 0.87.
The same measure for A57C A64U: 0.44; for A57C A64G: 0.34.
As for U58G U74A, the self-cleavage was 0.31.
Under A57C G63A stands 0.58; under A57G U76G, 1.08; under A57G U76A, 1.01.
Under A57G U76C stands 1.01.
Under U58A A75U stands 0.29.
For the variant U58A A75G, the self-cleavage worked out at 0.46.
The same measure for U58A U76A: 0.49.
The same measure for C59G U76A: 0.47; for U60A A64U: 0.33; for U60A A64C: 0.13.
On to U60A A64G, for which the self-cleavage was 0.43.
For A57C U80C, the self-cleavage turned out to be 0.67.
In the case of A57U U58G, the self-cleavage is 0.1.
Regarding A57U U58C, the self-cleavage worked out at 0.18.
The same measure for A57U U58A: 0.3; for U58A U80A: 0.5; for U58A U80C: 0.46.
For the variant U60A C68G, the self-cleavage worked out at 0.43.
Regarding C59A U78A, the self-cleavage was found to be 0.22.
Consider C59A U78C, for which the self-cleavage came to 0.38.
Under C59U U69A stands 0.41; under C59U U69C, 0.48.
Take C59A U67A: the self-cleavage is 0.26.
Take C59A U67C: the self-cleavage stood at 0.16.
Under U58C A65G stands 0.27.
As for U58C A65C, the self-cleavage was determined as 0.14.
In the case of U58C A65U, the self-cleavage worked out at 0.21.
Turning to A56U U74A, the self-cleavage was determined as 1.17.
As for A56U U74C, the self-cleavage was determined as 1.06.
As to A56U G61A, the self-cleavage amounted to 0.29.
On to C59A G70U, for which the self-cleavage stood at 0.13.
Under U58C A75G stands 0.46; under U58C A75U, 0.7.
Turning to A57U U60A, the self-cleavage was determined as 0.24.
The same measure for A57U U60C: 0.27; for A57U U72A: 0.43; for A57U U72C: 0.89.
As for A57G C79A, the self-cleavage amounted to 0.73.
Consider A57G C79U, for which the self-cleavage stood at 1.1.
On to U58A A64G, for which the self-cleavage stood at 0.32.
The same measure for A57U C79G: 1.16.
Regarding U58C C71U, the self-cleavage was determined as 0.41.
In the case of U58C C71A, the self-cleavage was determined as 0.37.
The same measure for U58C C68A: 0.2.
The same measure for A56U G73A: 1.18; for U58A C62U: 0.23.
The same measure for U58A: 0.41; for U58C: 0.56.
As for U58G, the self-cleavage was 0.34.
The same measure for U58A A65U: 0.13; for U58A A65G: 0.17.
Under U60A stands 0.57.
The same measure for A56U U58A: 0.31; for A56U U58C: 0.3; for A56U U58G: 0.18.
Regarding A57G U69C, the self-cleavage stood at 0.48.
Under A57G U69G stands 0.72; under A57G U69A, 0.54.
Turning to U58G G70A, the self-cleavage was found to be 0.19.
As to C59G C71A, the self-cleavage came out at 0.24.
Regarding U58A U72A, the self-cleavage came out at 0.38.
Consider U58A U72G, for which the self-cleavage turned out to be 0.42.
The same measure for U58A U72C: 0.43; for C59U U74C: 1.1; for C59U U74A: 1.6.
The same measure for A57G G70A: 0.49.
The same measure for A57G G70C: 0.22.
U58G U72A: the self-cleavage was determined as 0.24.
Under U58G U72G stands 0.44; under U58G U72C, 0.28.
Under C59U A75G stands 0.81; under A56U A75U, 0.79; under A56U A75G, 0.54.
Under A56U C79A stands 1.12; under A57G A64G, 0.81; under A57G A64U, 0.36.
Regarding A57C U58C, the self-cleavage came to 0.3.
The same measure for C59G U66C: 0.19; for C59A A75U: 0.13; for C59A A75G: 0.16.
The same measure for C59A U72C: 0.34.
The same measure for C59A U72A: 0.13; for U58C G70A: 0.37.
As for U58G U76A, the self-cleavage was 0.51.
The same measure for C59G A75U: 0.28.
U60A A75U: the self-cleavage came to 0.62.
Consider U60A A75G, for which the self-cleavage worked out at 0.46.
Under A57U U80A stands 0.55.
Under A57U U80C stands 0.92.
Under U60A A65U stands 0.21; under U60A A65G, 0.34; under A57U C59U, 0.21.
As for U58C U66C, the self-cleavage worked out at 0.28.
U58C U66G: the self-cleavage was 0.23.
Regarding U58G A64U, the self-cleavage amounted to 0.17.
Consider U58A G73A, for which the self-cleavage came out at 1.1.
Regarding C59A, the self-cleavage is 0.37.
On to C59U, for which the self-cleavage is 0.95.
For the variant C59G, the self-cleavage turned out to be 0.32.
Take U58C A77U: the self-cleavage is 0.65.
The same measure for U58C A77G: 0.56; for U58C A77C: 0.26; for A56U U67C: 0.26.
The same measure for A56U U67G: 0.16.
On to A56U U67A, for which the self-cleavage came to 0.43.
The same measure for A57G C68G: 0.4.
Under A57G C68U stands 0.77.
Under C59U A65G stands 0.4; under U58G U66C, 0.27.
Regarding U58C G73A, the self-cleavage was found to be 1.24.
As for A57G U80A, the self-cleavage worked out at 1.06.
Under A57G U80C stands 1; under A57G U80G, 1.12.
For C59A U60C, the self-cleavage is 0.19.
As for C59A U60A, the self-cleavage is 0.31.
Under U58C U80G stands 0.67.
Under U58C U80A stands 0.91.
Take U58C U80C: the self-cleavage is 0.57.
